Results from patent US5108916A, “Process for stereoselectively hydrolyzing, transesterifying or esterifying with immobilized isozyme of lipase from Candida rugosa” (priority 1989, dated 1992).

B1: acetylcholinesterase of T. californica: acetylcholine esterase from Torpedo californica (protein, UniProt P04058 22-564, looked up)
Acetylcholinesterase: DDHSELLVNTKSGKVMGTRVPVLSSHISAFLGIPFAEPPVGNMRFRRPEPKKPWSGVWNASTYPNNCQQYVDEQFPGFSGSEMWNPNREMSEDCLYLNIWVPSPRPKSTTVMVWIYGGGFYSGSSTLDVYNGKYLAYTEEVVLVSLSYRVGAFGFLALHGSQEAPGNVGLLDQRMALQWVHDNIQFFGGDPKTVTIFGESAGGASVGMHILSPGSRDLFRRAILQSGSPNCPWASVSVAEGRRRAVELGRNLNCNLNSDEELIHCLREKKPQELIDVEWNVLPFDSIFRFSFVPVIDGEFFPTSLESMLNSGNFKKTQILLGVNKDEGSFFLLYGAPGFSKDSESKISREDFMSGVKLSVPHANDLGLDAVTLQYTDWMDDNNGIKNRDGLDDIVGDHNVICPLMHFVNKYTKFGNGTYLYFFNHRASNLVWPEWMGVIHGYEIEFVFGLPLVKELNYTAEEEALSRRIMHYWATFAKTGNPNEPHSQESKWPLFTTKEQKFIDLNTEPMKVHQRLRVQMCVFWNQFLPKLLNATACDGELSS
B2: Mucor miehei: Mucor miehei lipase (protein, UniProt P19515 95-363, looked up)
Lipase: SIDGGIRAATSQEINELTYYTTLSANSYCRTVIPGATWDCIHCDATEDLKIIKTWSTLIYDTNAMVARGDSEKTIYIVFRGSSSIRNWIADLTFVPVSYPPVSGTKVHKGFLDSYGEVQNELVATVLDQFKQYPSYKVAVTGHSLGGATALLCALDLYQREEGLSSSNLFLYTQGQPRVGDPAFANYVVSTGIPYRRTVNERDIVPHLPPAAFGFLHAGEEYWITDNSPETVQVCTSDLETSDCSNSIVPFTSVLDHLSYFGINTGLCT

Assays:
[1] = Hydrolysis of R,S-HPPA methyl ester by free lipase or isozyme in aqueous buffer, R and S acids by HPLC; format: biochemical
Description: Lipase MY (Meito Sangyo), 340mg, 4g of R,S-HPPA methyl ester, and 200ml of 20mM KH2 PO4 (adjusted to pH 6.5) were mixed, with shaking, for 5.5 hours.
Analysis of the acid formed was carried out by extraction of the ester after adjustment of the aqueous solution to pH 6.5 (a slight pH drop occurs on hydrolysis) with CH2 Cl2 followed by adjusting the pH to 2 and extraction of the acid with ethyl acetate. The solution was evaporated to dryness, taken up in water and analyzed by HPLC with a Macherey Nagel-Duren Resolvosil BSA- column using 5% n-propanol, 10mM KH2 PO4, pH 5 at 2.7ml/min with detection at 220nm. At that time 35% of the R, S-ester was converted to the acid. The ratio of R and S acids was 94% R and 6% S.
Lipase MY (Meito Sangyo), Candida lipase B (Biocatalyst, Ltd), lipase OF (Meito Sangyo), and Lipase AY (Amano) were compared for stereoselectivity for production of R-HPPA from R,S-HPPA methyl ester. The preparations, in amounts shown in Table I, were added to 50 ml of 20 mM HPPA methyl ester in 50 mM KH2 PO4 pH 6.5. […] The ratio of R to S acid was determined by HPLC as described in Example 3 at approximately 16% hydrolysis of the ester.
Two hundred mls of KH2 PO4 (pH 6.5) was combined with 400 mg HPPA-Me and 500 units of T. californica acetylcholine esterase. The reaction mixture was shaken for 24 hours and then sampled and analyzed as in Example 3. […]

[2] = Hydrolysis of ketoprofen esters by lipases, acid by HPLC, ee via diastereomeric amides; format: biochemical
Description: To a solution of 9ml of 100mM ammonium phosphate (pH 5.5) in 50 ml Erlenmeyer flask a weighed amount of ester (either directly or dissolved in 200 ul DMF) was added. A solution of the weighed amount of enzyme in 1 ml of the same buffer was added. The mixture was agitated in a rotary shaker at 250 RPM at 35° C. typically for 22 hours. The reaction mixture was acidified with 8 drops 6(N) HCl to pH 1.5-2.0, extracted with CHCl3 (2×10 ml). The CHCl3 solution was analyzed by HPLC to determine the percent of acid produced in the hydrolysis.
The CHCl3 extract (5 ml) of the hydrolysis reaction was dried over anhydrous Na2 SO4 and filtered. The filtrate was cooled to 0° C. in stoppered vials and 100 ul of N-methylmorpholine, followed by 100 ul of isobutyl chloroformate were added. After gently shaking at 0° C. for 10 minutes, 100 ul of D-(+)-1-phenylethylamine was added and gently shaking at 0° C. was continued for 5 minutes. The reaction mixture was then shaken at room temperature for 5 minutes. The reaction mixture was washed with water (5 ml), 1(N) HCl (5 ml) and again with water (5 ml). The diastereomeric amides produced were then analyzed by HPLC on a column as specifically noted to determine the ee (%S-%R) of the acid produced by enzymatic hydrolysis of the esters.
Ketoprofen esters (50 mg) were hydrolyzed as above. HPLC analysis for the amount of acid produced for the ketoprofen monoglyceride and ketoprofen ethylene glycol ester hydrolysis were performed on Partisil 5 ODS-3 RAC column (9.4 mm×100 mm, Whatman) using CH3 OH: 10mM (NH4)H2 PO4 (60:40) at 4 ml/min and monitoring at 254 nm. HPLC analysis of the acid produced in the hydrolysis of the other esters were done on ODS-3 RAC column using CH3 OH: 10 mM (NH4)H2 PO4 (80:20) at 2ml/min and monitoring at 254 nm. The enantiomeric excess of the ketoprofen produced for each hydrolysis was determined by analysis of the amides by HPLC on ODS-3 RAC column using CH3 OH:10 mM (NH4)H2 PO4 (60:40) at 4 ml/min and monitoring at 254 nm. […]
To determine whether oleic acid could be used to enhance the rate/selectivity using other lipase and/or substrates, the following experiment was performed. 50 mg of either the diethylene glycol ester, triethylene glycol monomethyl ester, monoglyceride ester, or ethylene glycol ester was placed in 50 ml Erlenmeyer flasks. To this was added 50 mg of Lipase MY, 50 mg of the Mucor miehei lipase, 2.5 mg of the Candida cylindracea lipase (Biocatalyst), or 5 mg of lipase OF, all in 1 ml of buffer. 10 ul of pig liver esterase was also used. Oleic acid was added to the flasks at 200 ul. Buffer was added to a final volume of 10 ml, and the flasks were incubated at 35.C, 250 rpm, acidified, and extracted with CHCl3 and analyzed by HPLC as in Example 18.

[3] = diethylene glycol ester, enzyme alone
[4] = ethylene glycol ester, + oleic acid
[5] = ethylene glycol ester, enzyme alone
[6] = monoglyceride ester, + oleic acid
[7] = monoglyceride ester, enzyme alone
[8] = monomethyl triethylene glycol ester, + oleic acid
[9] = monomethyl triethylene glycol ester, enzyme alone

| Molecule | stereoselective hydrolysis of HPPA-Me to R-HPPA [1] | hydrolyzing activity on HPPA-Me ([1]; 500 units, 400 mg HPPA-Me, pH 6.5, 24 hours) | % ee (R = R-acid) ([2]; diethylene glycol ester, + oleic acid) [R] | % Acid ([2]; diethylene glycol ester, + oleic acid 200 ul) [%] | % Acid [2, 3] [%] | % ee (R = R-acid) [2, 3] [R] | % Acid [2, 4] [%] | % ee (R = R-acid) [2, 4] [R] | % Acid [2, 5] [%] | % ee (R = R-acid) [2, 5] [R] | % Acid [2, 6] [%] | % ee (R = R-acid) [2, 6] [R] | % Acid [2, 7] [%] | % ee (R = R-acid) [2, 7] [R] | % Acid [2, 8] [%] | % ee (R = R-acid) [2, 8] [R] | % Acid [2, 9] [%] | % ee (R = R-acid) [2, 9] [R] |
| --- | --- | --- | --- | --- | --- | --- | --- | --- | --- | --- | --- | --- | --- | --- | --- | --- | --- | --- |
| B1 | did not stereoselectively hydrolyze | Very little hydrolyzing activity |  |  |  |  |  |  |  |  |  |  |  |  |  |  |  |  |
| B2 |  |  | 2 | 20 | 24 | 41 | 10 | 42 | 17 | 54 | 4 | 35 | 20 | 40 | 6 | 1 | 26 | 36 |
